# Measured values: IntAct's records for PubMed 33727702
# B1: Interferon-induced helicase C domain-containing protein 1 (Homo sapiens), Q9BYX4 (parent)
# chain: MSNGYSTDENFRYLISCFRARVKMYIQVEPVLDYLTFLPAEVKEQIQRTVATSGNMQAVELLLSTLEKGVWHLGWTREFVEALRRTGSPLAARYMNPELTDLPSPSFENAHDEYLQLLNLLQPTLVDKLLVRDVLDKCMEEELLTIEDRNRIAAAENNGNESGVRELLKRIVQKENWFSAFLNVLRQTGNNELVQELTGSDCSESNAEIENLSQVDGPQVEEQLLSTTVQPNLEKEVWGMENNSSESSFADSSVVSESDTSLAEGSVSCLDESLGHNSNMGSDSGTMGSDSDEENVAARASPEPELQLRPYQMEVAQPALEGKNIIICLPTGSGKTRVAVYIAKDHLDKKKKASEPGKVIVLVNKVLLVEQLFRKEFQPFLKKWYRVIGLSGDTQLKISFPEVVKSCDIIISTAQILENSLLNLENGEDAGVQLSDFSLIIIDECHHTNKEAVYNNIMRHYLMQKLKNNRLKKENKPVIPLPQILGLTASPGVGGATKQAKAEEHILKLCANLDAFTIKTVKENLDQLKNQIQEPCKKFAIADATREDPFKEKLLEIMTRIQTYCQMSPMSDFGTQPYEQWAIQMEKKAAKEGNRKERVCAEHLRKYNEALQINDTIRMIDAYTHLETFYNEEKDKKFAVIEDDSDEGGDDEYCDGDEDEDDLKKPLKLDETDRFLMTLFFENNKMLKRLAENPEYENEKLTKLRNTIMEQYTRTEESARGIIFTKTRQSAYALSQWITENEKFAEVGVKAHHLIGAGHSSEFKPMTQNEQKEVISKFRTGKINLLIATTVAEEGLDIKECNIVIRYGLVTNEIAMVQARGRARADESTYVLVAHSGSGVIEHETVNDFREKMMYKAIHCVQNMKPEEYAHKILELQMQSIMEKKMKTKRNIAKHYKNNPSLITFLCKNCSVLACSGEDIHVIEKMHHVNMTPEFKELYIVRENKALQKKCADYQINGEIICKCGQAWGTMMVHKGLDLPCLKIRNFVVVFKNNSTKKQYKKWVELPITFPNLDYSECCLFSDED
# partner: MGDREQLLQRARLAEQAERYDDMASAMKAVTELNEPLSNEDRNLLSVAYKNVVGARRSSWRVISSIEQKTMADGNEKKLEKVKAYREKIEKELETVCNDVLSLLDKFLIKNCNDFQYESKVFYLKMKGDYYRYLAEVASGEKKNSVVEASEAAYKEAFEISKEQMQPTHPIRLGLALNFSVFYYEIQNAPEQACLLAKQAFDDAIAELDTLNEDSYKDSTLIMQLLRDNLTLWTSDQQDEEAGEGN
# B2: Interferon-induced helicase C domain-containing protein 1 (Homo sapiens), Q9BYX4 (parent)
# chain: B1 chain
# Variants of: B1
# Conditions: with 1433f_human YWHAH
row,Variant,effect of a mutation on the interaction
1,K23R;K43R,with no effect
2,K68R,with no effect

# Variants of: B2
# Conditions: with isg15_human ISG15, P05161
# isg15_human ISG15, P05161, sequence (P05161 whole entry): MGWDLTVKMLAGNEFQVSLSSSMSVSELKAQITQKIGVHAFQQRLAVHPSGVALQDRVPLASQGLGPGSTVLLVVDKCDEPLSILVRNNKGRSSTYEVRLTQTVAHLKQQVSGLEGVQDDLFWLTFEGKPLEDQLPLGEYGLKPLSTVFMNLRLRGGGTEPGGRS
row,Variant,effect of a mutation on the interaction
1,K43R,decreasing interaction strength
2,K169R,with no effect
3,K174R,with no effect
4,K23R,decreasing interaction strength
5,K128R,with no effect
6,K68R,decreasing interaction strength
7,K235R,increasing interaction strength
8,K23R;K43R,disrupting interaction strength
9,K137R,with no effect
